{"source": "paper PMC11849073", "about": "“Specific recognition mechanism of an antibody to sulfated tyrosine and its potential use in biological research” (The Journal of Biological Chemistry, 2025)", "key": {"[1]": {"target": "BA8 Fab LC S98 A mutant (light chain) (rabbit)", "sequence (heavy, as listed by the source, chain 1 of 2)": "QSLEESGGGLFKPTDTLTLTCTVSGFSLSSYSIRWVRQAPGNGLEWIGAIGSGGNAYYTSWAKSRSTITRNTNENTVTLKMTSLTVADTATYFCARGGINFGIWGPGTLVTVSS", "sequence (light, as listed by the source, chain 2 of 2)": "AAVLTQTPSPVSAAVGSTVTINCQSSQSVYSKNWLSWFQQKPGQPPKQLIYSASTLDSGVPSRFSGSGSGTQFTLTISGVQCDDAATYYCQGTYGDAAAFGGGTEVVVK", "assay": "ITC; MicroCal PEAQ-ITC; 10 μM BA8 Fab in the cell, 100 μM CCR5 N-terminal peptide in the syringe; PBS; 25 °C (297 K in the table's footnote); one set of sites"}, "[2]": {"target": "BA8 Fab N55 A mutant (heavy chain) (rabbit)", "sequence (heavy, as listed by the source, chain 1 of 2)": "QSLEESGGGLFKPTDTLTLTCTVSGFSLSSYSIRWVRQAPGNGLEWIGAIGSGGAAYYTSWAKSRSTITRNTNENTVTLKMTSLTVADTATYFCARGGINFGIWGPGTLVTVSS", "sequence (light, as listed by the source, chain 2 of 2)": "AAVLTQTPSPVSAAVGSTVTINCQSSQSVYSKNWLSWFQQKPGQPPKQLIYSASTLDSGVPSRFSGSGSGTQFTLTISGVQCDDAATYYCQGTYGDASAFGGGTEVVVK", "assay": "ITC; MicroCal PEAQ-ITC; 10 μM BA8 Fab in the cell, 100 μM CCR5 N-terminal peptide in the syringe; PBS; 25 °C (297 K in the table's footnote); one set of sites"}, "[3]": {"target": "BA8 Fab S30 A mutant (heavy chain) (rabbit)", "sequence (heavy, as listed by the source, chain 1 of 2)": "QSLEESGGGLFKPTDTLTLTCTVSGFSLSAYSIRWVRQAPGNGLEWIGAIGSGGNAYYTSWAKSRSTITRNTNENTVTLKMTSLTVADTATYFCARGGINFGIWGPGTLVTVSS", "assay": "ITC; MicroCal PEAQ-ITC; 10 μM BA8 Fab in the cell, 100 μM CCR5 N-terminal peptide in the syringe; PBS; 25 °C (297 K in the table's footnote); one set of sites"}, "[4]": {"target": "BA8 Fab S32 A mutant (heavy chain) (rabbit)", "sequence (heavy, as listed by the source, chain 1 of 2)": "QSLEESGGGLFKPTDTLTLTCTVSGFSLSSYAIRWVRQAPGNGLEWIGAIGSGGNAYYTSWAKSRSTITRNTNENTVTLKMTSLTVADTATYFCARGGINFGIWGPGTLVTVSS", "assay": "ITC; MicroCal PEAQ-ITC; 10 μM BA8 Fab in the cell, 100 μM CCR5 N-terminal peptide in the syringe; PBS; 25 °C (297 K in the table's footnote); one set of sites"}, "[5]": {"target": "BA8 Fab S52 A mutant (heavy chain) (rabbit)", "sequence (heavy, as listed by the source, chain 1 of 2)": "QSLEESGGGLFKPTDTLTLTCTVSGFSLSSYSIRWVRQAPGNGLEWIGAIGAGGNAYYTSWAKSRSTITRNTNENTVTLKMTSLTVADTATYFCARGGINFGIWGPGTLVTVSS", "assay": "ITC; MicroCal PEAQ-ITC; 10 μM BA8 Fab in the cell, 100 μM CCR5 N-terminal peptide in the syringe; PBS; 25 °C (297 K in the table's footnote); one set of sites"}, "[6]": {"target": "BA8 Fab W46 A mutant (heavy chain) (rabbit)", "sequence (heavy, as listed by the source, chain 1 of 2)": "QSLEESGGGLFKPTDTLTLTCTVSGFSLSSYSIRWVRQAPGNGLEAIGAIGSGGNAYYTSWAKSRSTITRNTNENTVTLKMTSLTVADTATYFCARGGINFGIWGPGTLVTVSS", "assay": "ITC; MicroCal PEAQ-ITC; 10 μM BA8 Fab in the cell, 100 μM CCR5 N-terminal peptide in the syringe; PBS; 25 °C (297 K in the table's footnote); one set of sites"}, "[7]": {"target": "BA8 Fab Y31 A mutant (heavy chain) (rabbit)", "sequence (heavy, as listed by the source, chain 1 of 2)": "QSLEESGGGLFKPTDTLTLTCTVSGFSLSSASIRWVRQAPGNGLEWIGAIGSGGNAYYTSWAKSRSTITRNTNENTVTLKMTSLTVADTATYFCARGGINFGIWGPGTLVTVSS", "assay": "ITC; MicroCal PEAQ-ITC; 10 μM BA8 Fab in the cell, 100 μM CCR5 N-terminal peptide in the syringe; PBS; 25 °C (297 K in the table's footnote); one set of sites"}, "[8]": {"target": "BA8 Fab Y57 A mutant (heavy chain) (rabbit)", "sequence (heavy, as listed by the source, chain 1 of 2)": "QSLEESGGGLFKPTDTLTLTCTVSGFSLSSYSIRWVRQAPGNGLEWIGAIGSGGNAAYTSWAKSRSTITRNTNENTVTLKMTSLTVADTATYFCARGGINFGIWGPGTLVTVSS", "assay": "ITC; MicroCal PEAQ-ITC; 10 μM BA8 Fab in the cell, 100 μM CCR5 N-terminal peptide in the syringe; PBS; 25 °C (297 K in the table's footnote); one set of sites"}, "[9]": {"target": "BA8 Fab Y57 F mutant (heavy chain) (rabbit)", "sequence (heavy, as listed by the source, chain 1 of 2)": "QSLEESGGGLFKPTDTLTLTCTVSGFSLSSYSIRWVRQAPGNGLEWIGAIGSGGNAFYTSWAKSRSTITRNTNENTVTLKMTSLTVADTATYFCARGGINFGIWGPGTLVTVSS", "assay": "ITC; MicroCal PEAQ-ITC; 10 μM BA8 Fab in the cell, 100 μM CCR5 N-terminal peptide in the syringe; PBS; 25 °C (297 K in the table's footnote); one set of sites"}, "[10]": {"target": "BA8 Fab LC S98 A mutant (light chain) (rabbit)", "assay": "SPR; Biacore 8K; each Fab immobilised on a CM5 chip by amine coupling (pH 5.5, about 3000 RU); peptides as analytes, 2 to 162 nM (20 nM to 1620 nM for the R34 A, S52 A and Y57 A mutants of Fig. 3C); PBS with 0.005% Tween 20; 30 μl/min; global fitting"}, "[11]": {"target": "BA8 Fab N55 A mutant (heavy chain) (rabbit)", "assay": "SPR; Biacore 8K; each Fab immobilised on a CM5 chip by amine coupling (pH 5.5, about 3000 RU); peptides as analytes, 2 to 162 nM (20 nM to 1620 nM for the R34 A, S52 A and Y57 A mutants of Fig. 3C); PBS with 0.005% Tween 20; 30 μl/min; global fitting"}, "[12]": {"target": "BA8 Fab S30 A mutant (heavy chain) (rabbit)", "assay": "SPR; Biacore 8K; each Fab immobilised on a CM5 chip by amine coupling (pH 5.5, about 3000 RU); peptides as analytes, 2 to 162 nM (20 nM to 1620 nM for the R34 A, S52 A and Y57 A mutants of Fig. 3C); PBS with 0.005% Tween 20; 30 μl/min; global fitting"}, "[13]": {"target": "BA8 Fab S32 A mutant (heavy chain) (rabbit)", "assay": "SPR; Biacore 8K; each Fab immobilised on a CM5 chip by amine coupling (pH 5.5, about 3000 RU); peptides as analytes, 2 to 162 nM (20 nM to 1620 nM for the R34 A, S52 A and Y57 A mutants of Fig. 3C); PBS with 0.005% Tween 20; 30 μl/min; global fitting"}, "[14]": {"target": "BA8 Fab W46 A mutant (heavy chain) (rabbit)", "assay": "SPR; Biacore 8K; each Fab immobilised on a CM5 chip by amine coupling (pH 5.5, about 3000 RU); peptides as analytes, 2 to 162 nM (20 nM to 1620 nM for the R34 A, S52 A and Y57 A mutants of Fig. 3C); PBS with 0.005% Tween 20; 30 μl/min; global fitting"}, "[15]": {"target": "BA8 Fab Y31 A mutant (heavy chain) (rabbit)", "assay": "SPR; Biacore 8K; each Fab immobilised on a CM5 chip by amine coupling (pH 5.5, about 3000 RU); peptides as analytes, 2 to 162 nM (20 nM to 1620 nM for the R34 A, S52 A and Y57 A mutants of Fig. 3C); PBS with 0.005% Tween 20; 30 μl/min; global fitting"}, "[16]": {"target": "BA8 Fab Y57 A mutant (heavy chain) (rabbit)", "assay": "SPR; Biacore 8K; each Fab immobilised on a CM5 chip by amine coupling (pH 5.5, about 3000 RU); peptides as analytes, 2 to 162 nM (20 nM to 1620 nM for the R34 A, S52 A and Y57 A mutants of Fig. 3C); PBS with 0.005% Tween 20; 30 μl/min; global fitting"}, "[17]": {"target": "BA8 Fab Y57 F mutant (heavy chain) (rabbit)", "assay": "SPR; Biacore 8K; each Fab immobilised on a CM5 chip by amine coupling (pH 5.5, about 3000 RU); peptides as analytes, 2 to 162 nM (20 nM to 1620 nM for the R34 A, S52 A and Y57 A mutants of Fig. 3C); PBS with 0.005% Tween 20; 30 μl/min; global fitting"}}, "data": [{"substance": "sulfated N-terminal peptide of CCR5 (Pro8 to Ser18 with sulfated Tyr10, Tyr14 and Tyr15)", "values": [{"measurement": "dH", "setting": "[1]", "result": -26.2, "unit": "kcal/mol"}, {"measurement": "stoichiometry N", "setting": "[1]", "result": 0.924, "unit": "sites"}, {"measurement": "dH", "setting": "[2]", "result": -27.6, "unit": "kcal/mol"}, {"measurement": "stoichiometry N", "setting": "[2]", "result": 0.844, "unit": "sites"}, {"measurement": "dH", "setting": "[3]", "result": -25.8, "unit": "kcal/mol"}, {"measurement": "stoichiometry N", "setting": "[3]", "result": 0.892, "unit": "sites"}, {"measurement": "dH", "setting": "[4]", "result": -26, "unit": "kcal/mol"}, {"measurement": "stoichiometry N", "setting": "[4]", "result": 0.903, "unit": "sites"}, {"measurement": "Kd", "setting": "[5]", "result": 726, "unit": "nM"}, {"measurement": "dH", "setting": "[5]", "result": -16.6, "unit": "kcal/mol"}, {"measurement": "stoichiometry N", "setting": "[5]", "result": 0.796, "unit": "sites"}, {"measurement": "Kd", "setting": "[6]", "result": 6.1, "unit": "nM"}, {"measurement": "dH", "setting": "[6]", "result": -27.2, "unit": "kcal/mol"}, {"measurement": "stoichiometry N", "setting": "[6]", "result": 0.824, "unit": "sites"}, {"measurement": "Kd", "setting": "[7]", "result": 4.41, "unit": "nM"}, {"measurement": "dH", "setting": "[7]", "result": -22.8, "unit": "kcal/mol"}, {"measurement": "stoichiometry N", "setting": "[7]", "result": 0.839, "unit": "sites"}, {"measurement": "Kd", "setting": "[8]", "result": 73.7, "unit": "nM"}, {"measurement": "dH", "setting": "[8]", "result": -21.7, "unit": "kcal/mol"}, {"measurement": "stoichiometry N", "setting": "[8]", "result": 0.854, "unit": "sites"}, {"measurement": "Kd", "setting": "[9]", "result": 10.5, "unit": "nM"}, {"measurement": "dH", "setting": "[9]", "result": -25, "unit": "kcal/mol"}, {"measurement": "stoichiometry N", "setting": "[9]", "result": 0.896, "unit": "sites"}, {"measurement": "Kd", "setting": "[10]", "result": 2.41, "unit": "nM"}, {"measurement": "Kd", "setting": "[11]", "result": 1.8, "unit": "nM"}, {"measurement": "Kd", "setting": "[12]", "result": 1.44, "unit": "nM"}, {"measurement": "Kd", "setting": "[13]", "result": 1.94, "unit": "nM"}, {"measurement": "Kd", "setting": "[14]", "result": 21.8, "unit": "nM"}, {"measurement": "Kd", "setting": "[15]", "result": 18.6, "unit": "nM"}, {"measurement": "Kd", "setting": "[16]", "result": 446, "unit": "nM"}, {"measurement": "Kd", "setting": "[17]", "result": 2.36, "unit": "nM"}]}]}
